Experiments:
[1] = biological target: Hck (UniProt P08631); experiment: phosphorylation enrichment, bacterial display (enrichment ratio); higher = better substrate or ligand; peptides without Tyr show the background
[2] = test system: AncSZ; experiment: as above
[3] = biological target: Fes (UniProt P07332); experiment: as above
[4] = test system: Fer (mouse); experiment: as above
[5] = biological target: FGFR3 (UniProt P22607); experiment: as above
[6] = biological target: EPHB1 (UniProt P54762); experiment: as above
[7] = test system: c-Src; experiment: as above
[8] = biological target: Fyn (UniProt P06241); experiment: as above
[9] = biological target: EPHB2 (UniProt P29323); experiment: as above
[10] = test system: c-Abl (mouse); experiment: as above
[11] = biological target: FGFR1 (UniProt P11362); experiment: as above
[12] = biological target: Jak2 (UniProt O60674); experiment: as above
[13] = biological target: MERTK (UniProt Q12866); experiment: as above
[14] = biological target: c-Src SH2; experiment: SH2 binding enrichment of the phosphorylated peptide, bacterial display (enrichment ratio); higher = better substrate or ligand; peptides without Tyr show the background
[15] = biological target: SHP2-C SH2; experiment: as above
[16] = biological target: Grb2 SH2 (UniProt P62993); experiment: as above
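Wherever SH2 binding enrichment of the phosphorylated peptide, bacterial display is given: peptide library displayed on the E. coli surface as eCPX fusions, selected cells deep-sequenced, score is each peptide's frequency after selection divided by its frequency in the input.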
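Wherever phosphorylation enrichment, bacterial display is given: 11-residue human phosphosite peptides and single-mutation variants displayed on the E. coli surface, counted by deep sequencing, each peptide's frequency after selection divided by its frequency in the unselected input library; frequency after pTyr selection over input frequency; kinase dosed for 20-30% of maximal phosphorylation in three min.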

Chain of Fyn (P06241 whole entry, looked up): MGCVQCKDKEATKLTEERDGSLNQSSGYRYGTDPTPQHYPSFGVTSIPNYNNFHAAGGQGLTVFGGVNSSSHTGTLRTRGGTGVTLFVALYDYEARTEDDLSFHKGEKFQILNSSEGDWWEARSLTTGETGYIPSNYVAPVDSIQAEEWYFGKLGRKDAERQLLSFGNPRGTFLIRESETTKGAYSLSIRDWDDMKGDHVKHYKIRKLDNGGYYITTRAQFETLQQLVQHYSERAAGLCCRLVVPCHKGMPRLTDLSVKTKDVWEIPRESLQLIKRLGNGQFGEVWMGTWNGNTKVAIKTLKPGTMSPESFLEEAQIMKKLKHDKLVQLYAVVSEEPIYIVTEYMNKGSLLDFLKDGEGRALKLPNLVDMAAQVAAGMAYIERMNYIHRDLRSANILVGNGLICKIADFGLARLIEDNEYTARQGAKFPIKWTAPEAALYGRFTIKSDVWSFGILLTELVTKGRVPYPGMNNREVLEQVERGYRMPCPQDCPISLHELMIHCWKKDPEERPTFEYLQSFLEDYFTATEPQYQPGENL
Chain of FGFR3 (P22607 whole entry, looked up): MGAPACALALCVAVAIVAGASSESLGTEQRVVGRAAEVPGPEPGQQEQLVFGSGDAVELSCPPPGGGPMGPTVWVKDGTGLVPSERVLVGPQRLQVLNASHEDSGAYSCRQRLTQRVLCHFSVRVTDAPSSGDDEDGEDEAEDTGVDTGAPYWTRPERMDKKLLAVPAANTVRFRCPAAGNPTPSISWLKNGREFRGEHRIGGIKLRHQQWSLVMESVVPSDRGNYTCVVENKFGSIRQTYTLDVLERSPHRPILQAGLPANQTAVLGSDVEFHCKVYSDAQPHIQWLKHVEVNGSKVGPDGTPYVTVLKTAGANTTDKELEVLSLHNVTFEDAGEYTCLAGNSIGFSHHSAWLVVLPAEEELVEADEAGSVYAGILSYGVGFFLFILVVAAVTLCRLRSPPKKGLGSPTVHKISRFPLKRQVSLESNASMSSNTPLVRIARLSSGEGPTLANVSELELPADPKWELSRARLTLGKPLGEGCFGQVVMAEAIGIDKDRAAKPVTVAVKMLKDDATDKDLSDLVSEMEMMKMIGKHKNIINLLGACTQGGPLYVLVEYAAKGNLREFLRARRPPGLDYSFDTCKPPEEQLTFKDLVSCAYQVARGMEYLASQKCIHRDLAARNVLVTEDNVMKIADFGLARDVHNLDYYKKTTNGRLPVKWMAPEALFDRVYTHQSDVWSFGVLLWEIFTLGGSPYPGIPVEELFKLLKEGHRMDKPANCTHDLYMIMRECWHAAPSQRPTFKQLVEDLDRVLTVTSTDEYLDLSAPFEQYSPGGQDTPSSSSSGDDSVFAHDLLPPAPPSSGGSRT
Chain of Jak2 (O60674 whole entry, looked up): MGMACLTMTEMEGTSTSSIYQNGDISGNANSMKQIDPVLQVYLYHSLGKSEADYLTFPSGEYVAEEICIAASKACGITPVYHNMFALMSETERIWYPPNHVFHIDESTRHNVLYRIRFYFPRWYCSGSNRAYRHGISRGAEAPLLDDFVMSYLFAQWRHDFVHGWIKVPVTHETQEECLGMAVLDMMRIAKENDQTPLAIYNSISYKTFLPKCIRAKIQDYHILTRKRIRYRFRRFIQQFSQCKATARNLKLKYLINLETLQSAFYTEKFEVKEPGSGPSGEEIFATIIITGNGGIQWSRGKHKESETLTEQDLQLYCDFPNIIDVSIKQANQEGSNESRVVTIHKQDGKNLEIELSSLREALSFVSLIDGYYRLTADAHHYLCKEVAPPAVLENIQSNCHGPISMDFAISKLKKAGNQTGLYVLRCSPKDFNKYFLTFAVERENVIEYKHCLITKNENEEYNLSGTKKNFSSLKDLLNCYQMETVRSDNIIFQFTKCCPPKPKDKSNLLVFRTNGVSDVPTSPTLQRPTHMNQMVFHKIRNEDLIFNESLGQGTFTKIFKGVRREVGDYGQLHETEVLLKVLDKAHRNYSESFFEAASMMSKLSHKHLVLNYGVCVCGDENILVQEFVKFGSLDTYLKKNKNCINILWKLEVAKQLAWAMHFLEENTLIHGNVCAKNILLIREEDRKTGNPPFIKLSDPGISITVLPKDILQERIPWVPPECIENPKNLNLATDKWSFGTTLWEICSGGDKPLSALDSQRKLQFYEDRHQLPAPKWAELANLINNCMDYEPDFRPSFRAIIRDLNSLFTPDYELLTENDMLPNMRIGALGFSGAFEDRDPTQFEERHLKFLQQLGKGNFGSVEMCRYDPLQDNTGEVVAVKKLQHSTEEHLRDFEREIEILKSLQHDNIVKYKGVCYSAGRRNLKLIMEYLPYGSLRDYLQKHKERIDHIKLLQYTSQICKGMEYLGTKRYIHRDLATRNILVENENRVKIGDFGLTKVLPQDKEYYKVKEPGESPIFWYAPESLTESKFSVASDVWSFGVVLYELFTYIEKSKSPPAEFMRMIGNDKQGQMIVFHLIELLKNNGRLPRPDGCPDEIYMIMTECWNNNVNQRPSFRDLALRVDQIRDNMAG
Chain of Hck (P08631 whole entry, looked up): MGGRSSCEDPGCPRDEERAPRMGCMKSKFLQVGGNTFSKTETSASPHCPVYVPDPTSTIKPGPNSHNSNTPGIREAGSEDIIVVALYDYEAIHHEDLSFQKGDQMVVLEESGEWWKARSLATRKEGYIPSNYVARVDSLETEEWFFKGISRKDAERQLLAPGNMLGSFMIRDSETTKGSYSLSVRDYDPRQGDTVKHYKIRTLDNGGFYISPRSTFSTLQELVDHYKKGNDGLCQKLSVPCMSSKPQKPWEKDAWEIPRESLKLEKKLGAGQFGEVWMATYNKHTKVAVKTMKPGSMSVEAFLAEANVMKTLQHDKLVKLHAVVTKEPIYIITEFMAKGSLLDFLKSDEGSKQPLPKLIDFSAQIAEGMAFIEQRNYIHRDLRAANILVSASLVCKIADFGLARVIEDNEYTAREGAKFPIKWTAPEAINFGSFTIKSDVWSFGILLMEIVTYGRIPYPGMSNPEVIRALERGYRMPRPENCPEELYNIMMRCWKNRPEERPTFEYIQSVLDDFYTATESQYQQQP
Chain of EPHB1 (P54762 whole entry, looked up): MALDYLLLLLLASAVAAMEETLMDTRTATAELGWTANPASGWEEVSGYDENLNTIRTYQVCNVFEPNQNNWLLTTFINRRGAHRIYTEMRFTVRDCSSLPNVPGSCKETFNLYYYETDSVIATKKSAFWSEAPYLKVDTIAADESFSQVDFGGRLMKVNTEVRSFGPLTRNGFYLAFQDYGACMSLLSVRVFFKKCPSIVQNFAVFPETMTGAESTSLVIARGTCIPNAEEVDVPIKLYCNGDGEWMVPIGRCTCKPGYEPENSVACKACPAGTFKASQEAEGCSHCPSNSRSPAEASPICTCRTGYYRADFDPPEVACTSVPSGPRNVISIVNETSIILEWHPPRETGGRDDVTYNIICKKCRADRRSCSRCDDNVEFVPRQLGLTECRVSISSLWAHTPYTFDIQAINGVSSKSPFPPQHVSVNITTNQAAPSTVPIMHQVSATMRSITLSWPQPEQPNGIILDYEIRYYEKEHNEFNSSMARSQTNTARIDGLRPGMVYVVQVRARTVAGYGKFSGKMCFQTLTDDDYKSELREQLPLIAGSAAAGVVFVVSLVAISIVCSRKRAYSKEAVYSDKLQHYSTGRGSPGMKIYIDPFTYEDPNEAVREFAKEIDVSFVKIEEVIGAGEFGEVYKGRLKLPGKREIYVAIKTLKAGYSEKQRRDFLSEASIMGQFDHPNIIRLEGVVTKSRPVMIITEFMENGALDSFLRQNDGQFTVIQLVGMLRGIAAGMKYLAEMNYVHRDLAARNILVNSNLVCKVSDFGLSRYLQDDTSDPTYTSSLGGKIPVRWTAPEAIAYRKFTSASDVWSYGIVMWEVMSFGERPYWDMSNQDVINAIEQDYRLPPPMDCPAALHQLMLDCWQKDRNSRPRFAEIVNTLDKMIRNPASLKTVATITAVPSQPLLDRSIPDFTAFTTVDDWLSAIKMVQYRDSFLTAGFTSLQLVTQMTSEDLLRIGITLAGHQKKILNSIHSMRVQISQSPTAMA
Chain of FGFR1 (P11362 whole entry, looked up): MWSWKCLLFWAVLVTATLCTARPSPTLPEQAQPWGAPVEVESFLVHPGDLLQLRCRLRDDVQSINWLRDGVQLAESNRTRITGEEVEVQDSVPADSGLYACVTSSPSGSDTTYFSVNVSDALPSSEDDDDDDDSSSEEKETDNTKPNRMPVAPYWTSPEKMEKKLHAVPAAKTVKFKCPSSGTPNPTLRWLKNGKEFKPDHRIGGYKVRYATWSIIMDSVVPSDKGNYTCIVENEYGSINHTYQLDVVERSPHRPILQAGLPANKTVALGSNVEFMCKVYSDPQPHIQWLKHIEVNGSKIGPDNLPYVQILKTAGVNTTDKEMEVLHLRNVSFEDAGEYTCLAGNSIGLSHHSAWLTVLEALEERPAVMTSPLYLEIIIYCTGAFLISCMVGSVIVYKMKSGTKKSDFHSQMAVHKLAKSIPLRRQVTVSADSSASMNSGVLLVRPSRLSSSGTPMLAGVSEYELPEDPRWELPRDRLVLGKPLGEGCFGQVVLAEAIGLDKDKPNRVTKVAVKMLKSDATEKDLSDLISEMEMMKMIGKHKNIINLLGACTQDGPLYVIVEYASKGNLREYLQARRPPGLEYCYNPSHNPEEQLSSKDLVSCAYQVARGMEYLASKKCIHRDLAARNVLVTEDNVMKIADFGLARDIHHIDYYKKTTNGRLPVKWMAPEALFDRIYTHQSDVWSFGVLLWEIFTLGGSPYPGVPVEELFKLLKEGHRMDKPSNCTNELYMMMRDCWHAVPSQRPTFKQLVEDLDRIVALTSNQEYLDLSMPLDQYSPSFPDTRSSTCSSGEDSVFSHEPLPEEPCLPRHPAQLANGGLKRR

Row | Sequence | SH2 binding enrichment [14] | SH2 binding enrichment [15] | SH2 binding enrichment [16] | phosphorylation enrichment [1] | phosphorylation enrichment [2] | phosphorylation enrichment [3] | phosphorylation enrichment [4] | phosphorylation enrichment [5] | phosphorylation enrichment [6] | phosphorylation enrichment [7] | phosphorylation enrichment [8] | phosphorylation enrichment [9] | phosphorylation enrichment [10] | phosphorylation enrichment [11] | phosphorylation enrichment [12] | phosphorylation enrichment [13]
1 | PFTRNYYVWAV [CYBA_Y87_R90W] | 0.899 | 1.54 | 1.32 | 1.03 | 1.41 | 1.12 | 1.2 | 8.21 | 3.1 | 0.777 | 0.744 | 3.42 | 4.71 | 9.92 | 2.5 | 6.79
2 | VRALTYCDLHK [KCNH2_Y827] | 0.715 | 0.968 | 0.885 | 0.582 | 0.74 | 0.874 | 0.531 | 0.591 | 0.603 | 0.392 | 0.499 | 0.704 | 0.656 | 0.452 | 0.605 | 0.453
3 | GRLPEYNTPIA [CCDC151_Y542_R545P] | 0.841 | 0.479 | 0.807 | 0.325 | 0.704 | 0.643 | 0.317 | 0.397 | 0.515 | 0.463 | 0.442 | 0.432 | 0.716 | 0.388 | 0.662 | 0.407
4 | HYPDVYAWEQL [ALX3_Y181_R183W] | 0.723 | 0.928 | 0.716 | 4.12 | 1.14 | 1.31 | 13.2 | 1.16 | 0.913 | 5.25 | 8.69 | 0.865 | 0.404 | 1.19 | 0.847 | 3.27
5 | RHPFFFAPELL [ALB_Y174_Y174F_YF] | 1.05 | 1.44 | 1.34 | 0.859 | 1.64 | 1.72 | 0.529 | 1.64 | 0.947 | 0.932 | 0.771 | 0.842 | 1.02 | 0.619 | 1.15 | 0.727
6 | QPAGNYSLSSV [ARFGAP3_Y473] | 0.486 | 1 | 0.812 | 0.715 | 0.985 | 0.946 | 0.623 | 0.75 | 0.866 | 0.798 | 0.424 | 0.638 | 0.996 | 0.414 | 0.874 | 0.93
7 | HSLLQYGGSAN [ANK1_Y624_R619H] | 0.367 | 0.661 | 0.862 | 0.505 | 0.579 | 0.481 | 0.447 | 0.531 | 0.421 | 0.357 | 0.427 | 0.583 | 0.472 | 0.316 | 0.394 | 0.386

The next lines start with results.

Row | SH2 binding enrichment [14] | SH2 binding enrichment [15] | SH2 binding enrichment [16] | Sequence | phosphorylation enrichment [1] | phosphorylation enrichment [2] | phosphorylation enrichment [3] | phosphorylation enrichment [4] | phosphorylation enrichment [5] | phosphorylation enrichment [6] | phosphorylation enrichment [7] | phosphorylation enrichment [8] | phosphorylation enrichment [9] | phosphorylation enrichment [10] | phosphorylation enrichment [11] | phosphorylation enrichment [12] | phosphorylation enrichment [13]
8 | 0.879 | 1.22 | 1.57 | FIGRIYLFLTK [GARS1_Y414_YF] | 0.564 | 1.61 | 1.45 | 0.707 | 0.813 | 0.83 | 0.632 | 0.567 | 0.632 | 1.31 | 0.542 | 1.38 | 0.586
9 | 0.944 | 1.15 | 1.25 | ITNLLYHVVSW [GBA_Y412_G416S] | 4.84 | 1.46 | 1.35 | 5.89 | 7.83 | 8.05 | 3.8 | 3.23 | 5.99 | 3.22 | 9.38 | 3.17 | 7.13
10 | 0.62 | 0.698 | 0.835 | IRTDAYVWAMT [RPE65_Y89_R91W] | 0.517 | 1.07 | 1.11 | 0.554 | 0.75 | 0.573 | 0.372 | 0.446 | 0.6 | 0.724 | 0.613 | 0.904 | 0.413
11 | 0.544 | 0.733 | 1.1 | APSEFYDGDHD [HDAC3_Y414_N411S] | 0.528 | 1.3 | 1.35 | 0.639 | 0.923 | 0.659 | 0.565 | 0.615 | 0.55 | 0.932 | 0.78 | 1.32 | 0.51
12 | 1.97 | 2.39 | 0.816 | QDRTFYESVRT [SPEN_Y633_YF] | 2.43 | 1.1 | 1.04 | 8.88 | 0.686 | 0.74 | 1.29 | 1.21 | 0.579 | 0.717 | 0.529 | 0.564 | 1.04
13 | 0.561 | 0.772 | 0.814 | HFEFKYVINAI [MAOA_Y268_C266F_YF] | 0.668 | 1.66 | 2.11 | 0.829 | 0.854 | 0.686 | 0.576 | 0.441 | 0.89 | 1.26 | 0.391 | 1.81 | 0.678
14 | 0.416 | 0.621 | 0.691 | IPPRRYFCSGV [STAMBP_Y36_R38C] | 0.464 | 0.642 | 0.739 | 0.403 | 0.447 | 0.342 | 0.393 | 0.478 | 0.466 | 0.593 | 0.428 | 0.667 | 0.432
15 | 0.653 | 0.793 | 0.936 | QQIFTYDSGIH [JUP_Y22_T19I_YF] | 0.833 | 1.46 | 1.32 | 0.653 | 1.09 | 0.967 | 0.939 | 0.897 | 0.991 | 1.14 | 0.784 | 1.2 | 0.901
16 | 0.512 | 0.475 | 0.788 | REIHDYIKHLG [UNC13C_Y308_D304E] | 0.511 | 0.631 | 1.26 | 0.651 | 0.741 | 0.699 | 1.02 | 0.821 | 0.663 | 0.794 | 0.371 | 0.843 | 0.723
17 | 0.442 | 0.767 | 0.868 | SFPPTYRFERG [INPPL1_Y661_YF] | 0.369 | 0.638 | 0.603 | 0.362 | 0.476 | 0.405 | 0.592 | 0.412 | 0.626 | 0.556 | 0.393 | 0.51 | 0.418

Source: the supplement of paper PMC10065799, “High-throughput profiling of sequence recognition by tyrosine kinases and SH2 domains using bacterial peptide display” (eLife, 2023)
